This note sets out measurements from paper PMC9792896, “Lack of ApoE inhibits ADan amyloidosis in a mouse model of familial Danish dementia” (The Journal of Biological Chemistry, 2022).

The data set deals with the molecule itself. Briefly: thioflavin-T aggregation assay; 30 μM peptide in PBS with 20 μM Th-T, pH 7.2, 100 μl in black 96-well nonbinding plate, 37 °C, fluorescence (ex 440 nm, em 495 nm) every 15 min for 18 h; peptide alone.

B1: ADan amyloid peptide (peptide)
peptide: EASNCFAIRHFENKFAVETLICFNLFLNSQEKHY
notes: 34 aa amyloid peptide released by pro-protein convertases from the familial Danish dementia (FDD) mutant form of human BRI2 (ITM2B); The first 22 residues are as in wild-type BRI2; Reconstituted in hexafluoroisopropanol (1 mg/ml, 7 days), stock in dimethyl sulfoxide, diluted in PBS; also called Danish amyloid; source: synthetic peptide (ERI Amyloid Laboratory)
As for B1, the binding result was “binds”.
